± gives the standard deviation of the averaged measurements.

For data set [1], the system named is Saccharomyces cerevisiae. Kind of data set: protein stability index of tFT-peptide fusion (C-terminal peptide) (PSI (0-1 scale)); higher = more stable (slower turnover). The procedure: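 MPS profiling in S. cerevisiae of the tFT-X12 degron library: putative degron peptides plus stable controls, 12 aa, fused to the C-terminus of a sfGFP-mCherry timer. Cells are FACS-sorted into 8 mCherry/sfGFP bins and deep-sequenced. PSI runs from 0 (unstable) to 1 (stable). Backgrounds are wild type, das1Δ and doa10Δ at 30 °C, and wild type, das1Δ, cdc34-1 and cdc53-1 at 37 °C; 2-3 technical replicates each.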

Data set [2] concerns Saccharomyces cerevisiae. The data set is described as above. Particulars: genetic background: wild type; temperature: 30 C.
[3] abbreviates: genetic background: cdc34-1, temperature: 37 C.
Setting [4] is: genetic background: cdc53-1, temperature: 37 C.
Setting [5] is: genetic background: das1 deletion, temperature: 30 C.
The mark [6] stands for this setting: genetic background: das1 deletion, temperature: 37 C.
Where [7] appears, read: genetic background: doa10 deletion, temperature: 30 C.
[8] abbreviates: genetic background: wild type, temperature: 30 C.
The mark [9] stands for this setting: genetic background: wild type, temperature: 37 C.
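Also: PSI is a weighted mean of sequencing reads over stability bins, variants kept only with over 10 reads, mCherry proximal and sfGFP distal, peptide attached via GGGS linker.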

As to HLLMLAMVGFQC, the protein stability index with Saccharomyces cerevisiae [1] (setting [3]) was 0.5752 ± 0.0029; in the data set on Saccharomyces cerevisiae [1] (setting [4]), 0.688 ± 0.0015; with Saccharomyces cerevisiae [1] (setting [5]), 0.475 ± 0.038; with Saccharomyces cerevisiae [1] (setting [6]), 0.619 ± 0.02; with Saccharomyces cerevisiae [1] (setting [7]) it was 0.424 ± 0.0061; with Saccharomyces cerevisiae [1] (setting [8]), 0.454 ± 0.022. Besides, the protein stability index in the data set on Saccharomyces cerevisiae [1] (setting [9]) amounted to 0.583 ± 0.025; with Saccharomyces cerevisiae [2] it was 0.487 ± 0.017.

HVLGSIYWAIFV: the protein stability index in the data set on Saccharomyces cerevisiae [1] (setting [3]) stood at 0.497 ± 0.02; with Saccharomyces cerevisiae [1] (setting [4]), 0.493 ± 0.028; in the data set with Saccharomyces cerevisiae [1] (setting [5]) it was 0.407 ± 0.024; with Saccharomyces cerevisiae [1] (setting [6]) it was 0.563 ± 0.023; with Saccharomyces cerevisiae [1] (setting [7]), 0.289 ± 0.0029; in the data set with Saccharomyces cerevisiae [1] (setting [8]) it was 0.314 ± 0.03. Also, the protein stability index amounted to 0.499 ± 0.011 in the data set on Saccharomyces cerevisiae [1] (setting [9]) and 0.428 ± 0.011 in the data set on Saccharomyces cerevisiae [2].

As to IGFFFACFFSVF, the protein stability index with Saccharomyces cerevisiae [1] (setting [3]) was found to be 0.419 ± 0.057; in the data set on Saccharomyces cerevisiae [1] (setting [4]), 0.444 ± 0.012; with Saccharomyces cerevisiae [1] (setting [5]), 0.403 ± 0.021; in the data set with Saccharomyces cerevisiae [1] (setting [6]), 0.518 ± 0.0099; in the data set with Saccharomyces cerevisiae [1] (setting [7]), 0.352 ± 0.0041; with Saccharomyces cerevisiae [1] (setting [8]), 0.363 ± 0.022. For the same sequence, the protein stability index in the data set with Saccharomyces cerevisiae [1] (setting [9]) came to 0.43 ± 0.019; in the data set with Saccharomyces cerevisiae [2], 0.442 ± 0.065.

As for IGWKLNRIQKNI, the protein stability index in the data set on Saccharomyces cerevisiae [1] (setting [3]) came out at 0.6858 ± 0.0052; in the data set with Saccharomyces cerevisiae [1] (setting [4]), 0.735 ± 0.043; in the data set with Saccharomyces cerevisiae [1] (setting [5]) it was 0.649 ± 0.028; with Saccharomyces cerevisiae [1] (setting [6]), 0.728 ± 0.047; in the data set on Saccharomyces cerevisiae [1] (setting [7]), 0.15 ± 0.021; in the data set with Saccharomyces cerevisiae [1] (setting [8]) it was 0.193 ± 0.029. The protein stability index in the data set on Saccharomyces cerevisiae [1] (setting [9]) came to 0.436 ± 0.011; with Saccharomyces cerevisiae [2] it was 0.326 ± 0.021.

Regarding IGYLGSELRFVS, the protein stability index was found to be 0.688 ± 0.094 in the data set on Saccharomyces cerevisiae [1] (setting [3]); 0.741 ± 0.011 in the data set with Saccharomyces cerevisiae [1] (setting [4]); 0.626 ± 0.0078 in the data set with Saccharomyces cerevisiae [1] (setting [5]); 0.762 ± 0.018 in the data set on Saccharomyces cerevisiae [1] (setting [6]); 0.384 ± 0.017 in the data set with Saccharomyces cerevisiae [1] (setting [7]); 0.434 ± 0.04 in the data set on Saccharomyces cerevisiae [1] (setting [8]). Also, the protein stability index in the data set on Saccharomyces cerevisiae [1] (setting [9]) is 0.69 ± 0.012; in the data set with Saccharomyces cerevisiae [2], 0.514 ± 0.037.

Turning to IISICLYFLVRC, the protein stability index is 0.223 ± 0.003 in the data set with Saccharomyces cerevisiae [1] (setting [3]); 0.326 ± 0.073 in the data set on Saccharomyces cerevisiae [1] (setting [4]); 0.229 ± 0.027 with Saccharomyces cerevisiae [1] (setting [5]); 0.391 ± 0.0067 in the data set with Saccharomyces cerevisiae [1] (setting [6]); 0.212 ± 0.0074 in the data set with Saccharomyces cerevisiae [1] (setting [7]); 0.212 ± 0.015 in the data set on Saccharomyces cerevisiae [1] (setting [8]). For the same sequence, the protein stability index in the data set on Saccharomyces cerevisiae [1] (setting [9]) stood at 0.327 ± 0.0058; with Saccharomyces cerevisiae [2], 0.299 ± 0.045.

As to IKKKKRKKIKAN, the protein stability index in the data set with Saccharomyces cerevisiae [1] (setting [3]) is 0.634 ± 0.048; in the data set with Saccharomyces cerevisiae [1] (setting [4]), 0.728 ± 0.019; with Saccharomyces cerevisiae [1] (setting [5]), 0.65 ± 0.024; with Saccharomyces cerevisiae [1] (setting [6]), 0.751 ± 0.015; with Saccharomyces cerevisiae [1] (setting [7]) it was 0.199 ± 0.013; with Saccharomyces cerevisiae [1] (setting [8]), 0.211 ± 0.017. Also, the protein stability index is 0.291 ± 0.021 with Saccharomyces cerevisiae [1] (setting [9]) and 0.244 ± 0.043 in the data set with Saccharomyces cerevisiae [2].

IKWRCLFCVCVL: the protein stability index in the data set on Saccharomyces cerevisiae [1] (setting [3]) turned out to be 0.477 ± 0.011; with Saccharomyces cerevisiae [1] (setting [4]), 0.466 ± 0.012; in the data set with Saccharomyces cerevisiae [1] (setting [5]), 0.429 ± 0.026; with Saccharomyces cerevisiae [1] (setting [6]), 0.489 ± 0.0054; in the data set on Saccharomyces cerevisiae [1] (setting [7]), 0.371 ± 0.0045; in the data set on Saccharomyces cerevisiae [1] (setting [8]) it was 0.375 ± 0.014. The protein stability index in the data set on Saccharomyces cerevisiae [1] (setting [9]) stood at 0.453 ± 0.008; in the data set with Saccharomyces cerevisiae [2], 0.422 ± 0.043.

In the case of ILFRRRLCCFLK, the protein stability index in the data set with Saccharomyces cerevisiae [1] (setting [3]) turned out to be 0.349 ± 0.03; in the data set with Saccharomyces cerevisiae [1] (setting [4]), 0.434 ± 0.0052; in the data set with Saccharomyces cerevisiae [1] (setting [5]), 0.443 ± 0.019; in the data set with Saccharomyces cerevisiae [1] (setting [6]), 0.536 ± 0.012; in the data set with Saccharomyces cerevisiae [1] (setting [7]) it was 0.506 ± 0.021; in the data set with Saccharomyces cerevisiae [1] (setting [8]), 0.396 ± 0.018. Also, the protein stability index turned out to be 0.484 ± 0.021 in the data set with Saccharomyces cerevisiae [1] (setting [9]) and 0.4735 ± 0.0015 with Saccharomyces cerevisiae [2].

The values above are taken from the supplement of paper PMC10724198.
